Laboratory results: PMC12643504

Experiments:
[1] = target: Full-length PKD2 (WT) (human) (UniProt Q13563); assay: SEC; channel proteins solubilised in DDM, Strep-Tactin affinity purified, reconstituted in amphipol A8-35, MBP cleaved by TEV; SEC at 4°C on Superdex 200 10/300 GL in 25 mM HEPES pH 7.4, 150 mM NaCl, 1 mM TCEP, 1 mM CaCl2; FSEC (Superose 6 5/150 GL, tryptophan fluorescence) after heating
[2] = target: PKD2 R803X Taiwan founder truncation variant (human) (UniProt Q13563); assay: as above

Question: For “Full-length PKD2 (WT) (from UniProt Q13563 1-968) (natural protein)”, which stoichiometry N [1] is on record?
Answer: 4

Question: For “PKD2 R803X Taiwan founder truncation variant (from UniProt Q13563 1-802) (domain or fragment)”, which stoichiometry N [2] is on record?
Answer: 4
